Measured values taken from the supplement of paper PMC9112550, “Optimization of the antimicrobial peptide Bac7 by deep mutational scanning” (BMC Biology, 2022).

What follows are sequences tested on Escherichia coli TOP10 (assay: shrunken log2 fold change of peptide-encoding DNA abundance (4.5 h post-induction vs induction); higher = less antimicrobial activity (less host growth inhibition)). Conditions: time post-induction: 4.5 h; library: site-saturation at positions 5, 18, 19, 20.
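Also: peptides expressed intracellularly from a pBAD plasmid library in pooled LB shake-flask culture, induced with 0.3% L-arabinose, DNA abundance read by NGS, three biological replicates, DESeq2 with apeglm shrinkage.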

Sequence	shrunken log2 fold change
RRIRVRPPRLPRPRPRPDLIPRP	0.0639
RRIRQRPPRLPRPRPRPTNFPRP	-0.159
RRIRLRPPRLPRPRPRPHWWPRP	0.148
RRIRIRPPRLPRPRPRPNSNPRP	-0.983
RRIRYRPPRLPRPRPRPEKFPRP	-0.0136
RRIRQRPPRLPRPRPRPISWPRP	-0.12
RRIRHRPPRLPRPRPRPTCTPRP	0.141
RRIRSRPPRLPRPRPRPVHAPRP	0.214
RRIRDRPPRLPRPRPRPPTPPRP	0.564
RRIRERPPRLPRPRPRPIPRPRP	-0.138
RRIRMRPPRLPRPRPRPVMWPRP	0.624
RRIRTRPPRLPRPRPRPRFRPRP	0.158
RRIRYRPPRLPRPRPRPRHIPRP	-0.767
RRIRMRPPRLPRPRPRPIWDPRP	0.0663
RRIRVRPPRLPRPRPRPVAKPRP	0.233
RRIRRRPPRLPRPRPRPVFMPRP	0.251
RRIRGRPPRLPRPRPRPMLLPRP	0.548
RRIRQRPPRLPRPRPRPVETPRP	-0.00674
RRIRNRPPRLPRPRPRPPNCPRP	0.00301
RRIRYRPPRLPRPRPRPAKCPRP	-0.153
RRIRVRPPRLPRPRPRPGSCPRP	0.216
RRIRRRPPRLPRPRPRPEKHPRP	0.121
RRIRKRPPRLPRPRPRPVWGPRP	3.44
RRIRKRPPRLPRPRPRPYILPRP	-0.0873
RRIRSRPPRLPRPRPRPHYMPRP	-0.273

Sequence	shrunken log2 fold change
RRIRVRPPRLPRPRPRPSQLPRP	-0.234
RRIRCRPPRLPRPRPRPAKVPRP	-0.243
RRIRWRPPRLPRPRPRPGYEPRP	0.00228
RRIRTRPPRLPRPRPRPPNDPRP	-0.133
RRIRMRPPRLPRPRPRPMMQPRP	-0.00112
RRIRDRPPRLPRPRPRPDENPRP	0.511
RRIRRRPPRLPRPRPRPDHYPRP	-2.95
RRIRGRPPRLPRPRPRPGWAPRP	0.992
RRIRTRPPRLPRPRPRPINAPRP	-0.175
RRIRLRPPRLPRPRPRPELRPRP	0.214
RRIRQRPPRLPRPRPRPETKPRP	0.0652
RRIRLRPPRLPRPRPRPLYMPRP	-0.763
RRIRTRPPRLPRPRPRPPDWPRP	0.705
RRIRDRPPRLPRPRPRPWIQPRP	-0.653
RRIRQRPPRLPRPRPRPKNRPRP	0.0773
RRIRNRPPRLPRPRPRPNIPPRP	-0.24
RRIRQRPPRLPRPRPRPCRRPRP	0.00897
RRIRWRPPRLPRPRPRPRFMPRP	-0.17
RRIRHRPPRLPRPRPRPHIQPRP	-0.701
RRIRLRPPRLPRPRPRPCEMPRP	-0.0934
RRIRGRPPRLPRPRPRPHWSPRP	-0.132
RRIRHRPPRLPRPRPRPSCQPRP	-0.31
RRIRTRPPRLPRPRPRPDTHPRP	-0.424
RRIRQRPPRLPRPRPRPRIDPRP	0.0868
RRIRHRPPRLPRPRPRPNAQPRP	-0.00277

Sequence	shrunken log2 fold change
RRIRWRPPRLPRPRPRPLEDPRP	0.047
RRIRDRPPRLPRPRPRPYGVPRP	0.00737
RRIRKRPPRLPRPRPRPYWRPRP	-0.426
RRIRPRPPRLPRPRPRPRQMPRP	0.184
RRIRARPPRLPRPRPRPPTTPRP	0.775
RRIRARPPRLPRPRPRPPIPPRP	0.319
RRIRTRPPRLPRPRPRPVGVPRP	0.234
RRIRLRPPRLPRPRPRPKDVPRP	-0.0185
RRIRRRPPRLPRPRPRPGINPRP	0.016
RRIRTRPPRLPRPRPRPIKSPRP	-0.61
RRIRDRPPRLPRPRPRPMGYPRP	-0.115
RRIRDRPPRLPRPRPRPIIPPRP	-0.644
RRIRKRPPRLPRPRPRPTGSPRP	0.423
RRIRTRPPRLPRPRPRPWKAPRP	0.0456
RRIRNRPPRLPRPRPRPIARPRP	-0.0163
RRIRLRPPRLPRPRPRPSNAPRP	-0.204
RRIRARPPRLPRPRPRPIWTPRP	-0.144
RRIRHRPPRLPRPRPRPNFWPRP	0.257
RRIRMRPPRLPRPRPRPDVDPRP	0.104
RRIRFRPPRLPRPRPRPSSQPRP	-0.458
RRIRPRPPRLPRPRPRPHVNPRP	-0.38
RRIRFRPPRLPRPRPRPFFEPRP	0.0992
RRIRSRPPRLPRPRPRPSCTPRP	-0.0382
RRIRPRPPRLPRPRPRPKSPPRP	-0.12
RRIRKRPPRLPRPRPRPAEKPRP	0.477

Sequence	shrunken log2 fold change
RRIRFRPPRLPRPRPRPWWCPRP	-0.0371
RRIRNRPPRLPRPRPRPGWMPRP	0.142
RRIRNRPPRLPRPRPRPPKFPRP	-0.0082
RRIRPRPPRLPRPRPRPPQSPRP	0.621
RRIRHRPPRLPRPRPRPMWAPRP	-0.0936
RRIRGRPPRLPRPRPRPVDHPRP	0.193
RRIRERPPRLPRPRPRPMVFPRP	0.0276
RRIRLRPPRLPRPRPRPWQTPRP	-0.0245
RRIRARPPRLPRPRPRPCQDPRP	-0.163
RRIRMRPPRLPRPRPRPAYFPRP	-0.197
RRIRARPPRLPRPRPRPFDQPRP	0.249
RRIRFRPPRLPRPRPRPPWVPRP	0.401
RRIRYRPPRLPRPRPRPHGAPRP	-0.0794
RRIRERPPRLPRPRPRPKIVPRP	-0.0778
RRIRIRPPRLPRPRPRPLAKPRP	-0.346
RRIRPRPPRLPRPRPRPPVKPRP	0.172
RRIRDRPPRLPRPRPRPMCAPRP	0.0829
RRIRPRPPRLPRPRPRPQQCPRP	-0.462
RRIRCRPPRLPRPRPRPTSPPRP	0.102
RRIRVRPPRLPRPRPRPRPIPRP	0.611
RRIRDRPPRLPRPRPRPIATPRP	-0.0393
RRIRCRPPRLPRPRPRPHRTPRP	-0.209
RRIRVRPPRLPRPRPRPPLEPRP	0.431
RRIRNRPPRLPRPRPRPQTQPRP	0.153
RRIRPRPPRLPRPRPRPPNRPRP	0.29

Sequence	shrunken log2 fold change
RRIRCRPPRLPRPRPRPLTYPRP	-0.19
RRIRVRPPRLPRPRPRPYPWPRP	-0.361
RRIRCRPPRLPRPRPRPWFRPRP	-0.269
RRIRPRPPRLPRPRPRPKIQPRP	0.0394
RRIRHRPPRLPRPRPRPWINPRP	-0.616
RRIRQRPPRLPRPRPRPVCKPRP	0.0434
RRIRPRPPRLPRPRPRPFSAPRP	0.0672
RRIRMRPPRLPRPRPRPNPMPRP	0.568
RRIRQRPPRLPRPRPRPPQKPRP	-0.167
RRIRMRPPRLPRPRPRPVNFPRP	-0.114
RRIRKRPPRLPRPRPRPCVCPRP	0.0462
RRIRARPPRLPRPRPRPPRPPRP	1
RRIRERPPRLPRPRPRPNLAPRP	-0.194
RRIRTRPPRLPRPRPRPSYRPRP	-0.271
RRIRYRPPRLPRPRPRPIRLPRP	0.0224
RRIRFRPPRLPRPRPRPAKWPRP	0.0975
RRIRLRPPRLPRPRPRPISCPRP	-0.0691
RRIRWRPPRLPRPRPRPKSWPRP	0.389
RRIRPRPPRLPRPRPRPWPKPRP	-0.0311
RRIRQRPPRLPRPRPRPKVGPRP	0.011
RRIRSRPPRLPRPRPRPWTFPRP	-0.199
RRIRSRPPRLPRPRPRPKGKPRP	0.0401
RRIRRRPPRLPRPRPRPAKDPRP	0.185
RRIRMRPPRLPRPRPRPTVTPRP	0.307
RRIRNRPPRLPRPRPRPRHAPRP	0.0219

Sequence	shrunken log2 fold change
RRIRRRPPRLPRPRPRPNDDPRP	0.0687
RRIRTRPPRLPRPRPRPKAKPRP	-0.0262
RRIRHRPPRLPRPRPRPMRGPRP	0.384
RRIRGRPPRLPRPRPRPVWHPRP	0.228
RRIRWRPPRLPRPRPRPSVNPRP	-0.0581
RRIRARPPRLPRPRPRPHQRPRP	0.0964
RRIRERPPRLPRPRPRPGWWPRP	-0.0125
RRIRTRPPRLPRPRPRPQKMPRP	0.176
RRIRDRPPRLPRPRPRPPKLPRP	0.0369
RRIRCRPPRLPRPRPRPKACPRP	0.0182
RRIRFRPPRLPRPRPRPVKDPRP	-0.254
RRIRHRPPRLPRPRPRPAKDPRP	-0.0214
RRIRQRPPRLPRPRPRPFIRPRP	-0.00448
RRIRLRPPRLPRPRPRPEECPRP	0.00698
RRIRSRPPRLPRPRPRPYHQPRP	-0.203
RRIRFRPPRLPRPRPRPCLGPRP	-0.201
RRIRERPPRLPRPRPRPNHTPRP	-0.58
RRIRFRPPRLPRPRPRPQHKPRP	-0.51
RRIRCRPPRLPRPRPRPAHIPRP	-0.0847
RRIRWRPPRLPRPRPRPAEKPRP	0.192
RRIRYRPPRLPRPRPRPTDLPRP	-0.396
RRIRMRPPRLPRPRPRPKKSPRP	1.18
RRIRFRPPRLPRPRPRPCPIPRP	-0.488
RRIRNRPPRLPRPRPRPGHIPRP	-0.433
RRIRRRPPRLPRPRPRPDQIPRP	-0.122
